Tests used:
[1] = target: T1, purified rhesus CD117 ectodomain (rhesus, UniProt F6V858 26-524); experiment: BLI, purified IgG on sensor, soluble rhesus ectodomain; apparent monovalent
T1 construct: extracellular domain; also called rhesus antigen

[2] = target: T2, purified human CD117 ectodomain (R&D Systems #332-SR) (human, UniProt P10721 26-524); experiment: BLI, purified IgG on sensor, soluble ectodomain; apparent monovalent
T2 construct: extracellular domain; Bought protein; also called c-kit; purified recombinant human CD117 ectodomain
T2 sequence (P10721 26-524): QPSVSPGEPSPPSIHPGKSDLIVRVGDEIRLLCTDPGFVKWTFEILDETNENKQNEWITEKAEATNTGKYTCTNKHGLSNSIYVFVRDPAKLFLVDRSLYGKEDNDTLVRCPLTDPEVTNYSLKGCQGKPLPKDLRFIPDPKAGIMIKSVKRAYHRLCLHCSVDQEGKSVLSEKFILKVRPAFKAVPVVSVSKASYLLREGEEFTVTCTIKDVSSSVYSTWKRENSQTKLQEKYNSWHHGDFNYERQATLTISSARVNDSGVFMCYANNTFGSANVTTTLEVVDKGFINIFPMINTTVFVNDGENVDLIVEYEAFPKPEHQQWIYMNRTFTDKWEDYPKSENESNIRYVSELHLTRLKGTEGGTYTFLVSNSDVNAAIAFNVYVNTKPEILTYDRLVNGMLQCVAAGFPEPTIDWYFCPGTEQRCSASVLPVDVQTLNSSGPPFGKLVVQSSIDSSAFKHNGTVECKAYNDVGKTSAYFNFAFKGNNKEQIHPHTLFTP

B1: HC-17/LC-17 (Ab17) (antibody, IgG1, V domains shown)
VH: QIQLVQSGPELRKPGESVKISCKASGYTFTDYAMYWVKQAPGKGLKWMGWINTYTGKPTYADDFKGRFVFSLEASANTANLQISNLKNEDTATYFCARARGLVDDYVMDAWGQGTSVTVSS
VL: SYELIQPPSASVTLGNTVSLTCVGDELSKRYAQWYQQKPDKTIVSVIYKDSERPSGISDRFSGSSSGTTATLTIHGTLAEDEADYYCLSTYSDDNLPVFGGGTKLTVL
notes: From rat immunization/hybridoma; purified IgG in BLI; also called 017
- Kd [1]: 0.562 nM
- koff [1]: 0.000173 s⁻¹
- kon [1]: 307000 M⁻¹ s⁻¹
- Kd [2]: 0.672 nM
- koff [2]: 0.000306 s⁻¹
- kon [2]: 456000 M⁻¹ s⁻¹

B2: HC-19/LC-19 (Ab19) (antibody, IgG1, V domains shown)
VH: EVQLQESGPGLVKPSQSLSLTCSVTGYSISSNYRWNWIRKFPGNKVEWMGYINSAGSTNYNPSLKSRISMTRDTSKNQFFLQVNSVTTEDTATYYCARSLRGYITDYSGFFDYWGQGVMVTVSS
VL: DIRMTQSPASLSASLGETVNIECLASEDIFSDLAWYQQKPGKSPQLLIYNANSLQNGVPSRFSGSGSGTRYSLKINSLQSEDVATYFCQQYKNYPLTFGSGTKLEIK
notes: From rat immunization/hybridoma; purified IgG in BLI; also called 019
- Kd [1]: 2.34 nM
- koff [1]: 0.000415 s⁻¹
- kon [1]: 177000 M⁻¹ s⁻¹
- Kd [2]: 2.35 nM
- koff [2]: 0.000481 s⁻¹
- kon [2]: 205000 M⁻¹ s⁻¹

B3: HC-18/LC-18 (Ab18) (antibody, IgG1, V domains shown)
VH: EVQLQQYGAELGKPGTSVRLSCKVSGYNIRNTYIHWVNQRPGEGLEWIGRIDPTNGNTISAEKFKTKATLTADTSSHTAYLQFSQLKSDDTAIYFCALNYEGYADYWGQGVMVTGSS
VL: DIQMTQSPSFLSASVGDRVTINCKASQNINKYLNWYQQKVGEAPKRLIFKTNSLQTGIPSRFSGSGSGTDYTLTISSLQTEDVATYFCFQYNIGYTFGAGTKVELK
notes: From rat immunization/hybridoma; purified IgG in BLI; also called 018
- Kd [1]: 53.8 nM
- koff [1]: 0.0119 s⁻¹
- kon [1]: 221000 M⁻¹ s⁻¹
- Kd [2]: 22.2 nM
- koff [2]: 0.00491 s⁻¹
- kon [2]: 221000 M⁻¹ s⁻¹

B4: HC-20/LC-20 (Ab20) (antibody, IgG1, V domains shown)
VH: EVQLQQYGAELGKPGTSVRLSCKLSGYKIRNTYIHWVNQRPGKGLEWIGRIDPANGNTIYAEKFKSKVTLTADTSSNTAYMQLSQLKSDDTALYFCAMNYEGYEDYWGQGVMVTVSS
VL: DIQMTQSPSFLSASVGDSVTINCKASQNINKYLNWYQQKLGEAPKRLIHKTDSLQTGIPSRFSGSGSGTDYTLTISSLQPEDVATYFCFQYKSGFMFGAGTKLELK
notes: From rat immunization/hybridoma; purified IgG in BLI; also called 020
- Kd [1]: 1.39 nM
- koff [1]: 0.000585 s⁻¹
- kon [1]: 421000 M⁻¹ s⁻¹
- Kd [2]: 0.254 nM
- koff [2]: 0.000202 s⁻¹
- kon [2]: 794000 M⁻¹ s⁻¹

B5: HC-23/LC-23 (Ab23) (antibody, IgG1, V domains shown)
VH: EVQLQQYGAELGKPGTSVRLSCKVSGYNIRNTYIHWVHQRPGEGLEWIGRIDPTNGNTISAEKFKSKATLTADTSSNTAYMQFSQLKSDDTAIYFCAMNYEGYADYWGQGVMVTVSS
VL: DIQMTQSPSFLSASVGDRLTINCKASQNINKYLNWYQQKLGEAPKRLIFKTNSLQTGIPSRFSGSGSGTDYTLTISSLQPEDVATYFCFQYNIGFTFGAGTKLELK
notes: From rat immunization/hybridoma; purified IgG in BLI; also called 023
- Kd [1]: 7.62 nM
- koff [1]: 0.00214 s⁻¹
- kon [1]: 280000 M⁻¹ s⁻¹
- Kd [2]: 1.49 nM
- koff [2]: 0.000713 s⁻¹
- kon [2]: 478000 M⁻¹ s⁻¹

B6: HC-28/LC-28 (Ab28) (antibody, IgG1, V domains shown)
VH: EVQLQQYGAELGKPGTSVRLSCKVSGYKIRNTYIHWVNQRPGKGLEWIGRIDPANGNTIYAEKFKSKVTLTADTSSNTAYMQLSQLKSDDTALYFCAMNYEGYEDYWGQGVMVTVSS
VL: DIQMTQSPSFLSASVGDSVTINCKASQNINKYLNWYQQKLGEAPKRLIHKTNSLQPGFPSRFSGSGSGTDYTLTISSLQPEDVAAYFCFQYNSGFTFGAGTKLELK
notes: From rat immunization/hybridoma; purified IgG in BLI; also called 028
- Kd [1]: 3.6 nM
- koff [1]: 0.00187 s⁻¹
- kon [1]: 521000 M⁻¹ s⁻¹
- Kd [2]: 0.403 nM
- koff [2]: 0.000368 s⁻¹
- kon [2]: 914000 M⁻¹ s⁻¹

B7: HC-11/LC-11 (Ab11) (antibody, IgG1, V domains shown)
VH: QVQLVQSGAAVKKPGESLKISCKGSGYRFTTYWIGWVRQMPGKGLEWMGIIYPGDSDTRYSPSFQGQVTISAGKSISTAYLQWSSLKASDTAMYYCARHGRGYNGYEGAFDIWGQGTMVTVSS
VL: AIQLTQSPSSLSASVGDRVTITCRASQSIGDYLTWYQQKPGKAPKVLIYGASSLQSGVPPRFSGSGSGTDFTLTVSSLQPEDFATYYCQQLNSYPLTFGGGTKLEIK
notes: Purified IgG; also called 011
- Kd [2]: 1.41 nM
- koff [2]: 0.000474 s⁻¹
- kon [2]: 336000 M⁻¹ s⁻¹

— patent US20240360238A1 (MAGENTA THERAPEUTICS, published 2024)
